In patent publication US20240294646A1:
Each block holds one substance with its values, some of them ahead of it.

Assays:
[1] = molecular target: Soluble FcγRIIb extracellular domain with C-terminal 10xHis tag (UniProt P31994); test: SPR; IIb-Fold / IIaR-Fold
[2] = molecular target: Soluble FcγRIIb extracellular domain with C-terminal 10xHis tag (UniProt P31994); test: SPR, antibody captured on immobilised HER2, soluble receptor as analyte
[3] = molecular target: Soluble FcγRIIaR extracellular domain with C-terminal 10xHis tag (UniProt P12318); test: as above
[4] = molecular target: Soluble FcγRIIb extracellular domain with C-terminal 10xHis tag (UniProt P31994); test: SPR; fold change in affinity over WT v16463
[5] = molecular target: Soluble FcγRIIaR extracellular domain with C-terminal 10xHis tag (UniProt P12318); test: SPR; fold change in affinity over WT v16463
FcγRIIb [6] = molecular target: FcγRIIb (UniProt P31994); test: SPR imaging (IBIS MX96), antibody spotted on chip, soluble receptor as analyte, kinetic fit, 25 C, pH 7.4
Target sequence in this assay (P31994 43-217): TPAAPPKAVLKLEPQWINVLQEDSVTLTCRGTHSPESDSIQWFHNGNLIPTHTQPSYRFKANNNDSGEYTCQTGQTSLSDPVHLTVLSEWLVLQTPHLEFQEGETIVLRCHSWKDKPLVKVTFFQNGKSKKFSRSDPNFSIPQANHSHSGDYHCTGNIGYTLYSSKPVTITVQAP

FcγRIIaR [7] = molecular target: FcγRIIaR (UniProt P12318); test: as above
Target sequence in this assay (P12318 34-217 H167R limits assumed): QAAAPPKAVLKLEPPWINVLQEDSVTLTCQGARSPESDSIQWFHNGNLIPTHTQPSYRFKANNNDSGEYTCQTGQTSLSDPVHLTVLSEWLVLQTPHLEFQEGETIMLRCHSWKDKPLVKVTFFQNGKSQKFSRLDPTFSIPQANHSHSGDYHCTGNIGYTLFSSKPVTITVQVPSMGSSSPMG

C1q (human) = C1q (human) (UniProt P02745); test: ELISA; antibody coated on the plate, human C1q added; signal as % of wild-type
FcγRIIb [8] = molecular target: FcγRIIb (UniProt P31994); test: SPR; antibody captured on immobilised HER2, soluble FcγR as analyte; fold over wild-type
Target sequence in this assay (P31994 43-217): as the sequence (P31994 43-217) above

FcγRIIaR [9] = molecular target: FcγRIIaR (UniProt P12318); test: as above
Target sequence in this assay (P12318 34-217): as the sequence (P12318 34-217 H167R limits assumed) above, with R134H counted along it

FcγRIIb [10] = molecular target: FcγRIIb (UniProt P31994); test: SPR; ratio of IIb-Fold to IIaR-Fold (FcγRIIb against FcγRIIaR)
Target sequence in this assay (P31994 43-217): as the sequence (P31994 43-217) above

[11] = molecular target: FcγRIIb soluble extracellular domain with C-terminal 10xHis tag (UniProt P31994); test: SPR, OAA captured on HER2, receptor in solution; KD(control v27294)/KD(variant)
[12] = molecular target: FcγRIIaR soluble extracellular domain with C-terminal 10xHis tag (UniProt P12318); test: SPR, OAA captured on HER2, receptor in solution; KD(WT v16463)/KD(variant)
[13] = molecular target: FcγRIIb soluble extracellular domain with C-terminal 10xHis tag (UniProt P31994); test: as above
[14] = molecular target: FcγRIIb soluble extracellular domain with C-terminal 10xHis tag (UniProt P31994); test: SPR; IIb-Fold/IIaR-Fold (FcγRIIb against FcγRIIaR)
[15] = molecular target: FcγRIIb soluble extracellular domain with C-terminal 10xHis tag (UniProt P31994); test: SPR; IIb selectivity of variant / that of control v27294
[16] = molecular target: Soluble FcγRIIb extracellular domain with C-terminal 10×His tag (UniProt P31994); test: SPR, antibody captured on HER2 chip, receptor as analyte
FcγRIIIaV = FcγRIIIaV (UniProt P08637); test: SPR (ProteOn XPR36), antibody captured on immobilized HER2, FcγR as analyte, equilibrium fit
FcγRI = FcγRI (UniProt P12314); test: as above
FcγRIIb [17] = molecular target: FcγRIIb (UniProt P31994); test: as above
Target sequence in this assay (P31994 43-217 limits assumed): as the sequence (P31994 43-217) above

FcγRIIaR [18] = molecular target: FcγRIIaR (UniProt P12318); test: as above
Target sequence in this assay (P12318 34-217): as the sequence (P12318 34-217 H167R limits assumed) above, with R134H counted along it

[19] = molecular target: Soluble FcγRIIb extracellular domain with C-terminal 10xHis tag (UniProt P31994); test: SPR (Biacore 4000); variant captured on HER2, receptor in solution
[20] = molecular target: Soluble FcγRIIaR extracellular domain with C-terminal 10xHis tag (UniProt P12318); test: as above
FcγRIIb [21] = molecular target: FcγRIIb (UniProt P31994); test: SPR (Protocol 1); FcγRIIb ratio over FcγRIIaR ratio
Target sequence in this assay (P31994 43-217 limits assumed): as the sequence (P31994 43-217) above

FcγRIIb [22] = molecular target: FcγRIIb (UniProt P31994); test: SPR (Protocol 1), one-armed antibody captured on HER2, receptor as analyte; ratio to wild-type
Target sequence in this assay (P31994 43-217 limits assumed): as the sequence (P31994 43-217) above

FcγRIIaR [23] = molecular target: FcγRIIaR (UniProt P12318); test: as above
Target sequence in this assay (P12318 34-217): as the sequence (P12318 34-217 H167R limits assumed) above, with R134H counted along it

FcγRIIb [24] = molecular target: FcγRIIb (UniProt P31994); test: SPR (Protocol 1); IIb-Fold over IIaR-Fold
Target sequence in this assay (P31994 43-217 limits assumed): as the sequence (P31994 43-217) above

FcγRIIb [25] = molecular target: FcγRIIb (UniProt P31994); test: SPR (Protocol 1), one-armed antibody captured on HER2, receptor as analyte; fold over wild-type
Target sequence in this assay (P31994 43-217 limits assumed): as the sequence (P31994 43-217) above

FcγRIIaR [26] = molecular target: FcγRIIaR (UniProt P12318); test: as above
Target sequence in this assay (P12318 34-217): as the sequence (P12318 34-217 H167R limits assumed) above, with R134H counted along it

Chain of C1q (human) (P02745 23-245 limits assumed, chain 1 of 3): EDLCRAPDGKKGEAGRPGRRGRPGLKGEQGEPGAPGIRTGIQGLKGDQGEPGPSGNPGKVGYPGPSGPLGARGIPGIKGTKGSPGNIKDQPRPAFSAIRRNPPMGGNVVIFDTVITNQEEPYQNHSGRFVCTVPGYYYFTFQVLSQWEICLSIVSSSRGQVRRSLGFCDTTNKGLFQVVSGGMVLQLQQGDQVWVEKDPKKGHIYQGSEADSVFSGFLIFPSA
Chain of C1q (human) (P02746 28-253 limits assumed, chain 2 of 3, further chain): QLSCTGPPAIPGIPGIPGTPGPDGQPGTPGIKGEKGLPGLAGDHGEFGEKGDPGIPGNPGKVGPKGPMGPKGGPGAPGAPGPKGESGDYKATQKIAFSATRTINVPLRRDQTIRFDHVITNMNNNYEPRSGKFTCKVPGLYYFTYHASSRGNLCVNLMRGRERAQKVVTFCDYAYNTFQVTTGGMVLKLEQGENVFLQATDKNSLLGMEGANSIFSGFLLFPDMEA
Chain of C1q (human) (P02747 29-245 limits assumed, chain 3 of 3, further chain): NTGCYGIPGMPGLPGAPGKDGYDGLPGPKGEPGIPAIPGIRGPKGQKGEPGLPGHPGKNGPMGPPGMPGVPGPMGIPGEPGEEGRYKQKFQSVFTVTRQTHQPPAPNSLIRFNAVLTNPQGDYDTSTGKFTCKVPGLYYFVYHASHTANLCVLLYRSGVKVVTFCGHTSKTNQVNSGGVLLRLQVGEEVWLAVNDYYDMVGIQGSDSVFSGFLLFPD
Chain of Soluble FcγRIIaR extracellular domain with C-terminal 10xHis tag (P12318 other isoform, or with tags, fused parts or gaps): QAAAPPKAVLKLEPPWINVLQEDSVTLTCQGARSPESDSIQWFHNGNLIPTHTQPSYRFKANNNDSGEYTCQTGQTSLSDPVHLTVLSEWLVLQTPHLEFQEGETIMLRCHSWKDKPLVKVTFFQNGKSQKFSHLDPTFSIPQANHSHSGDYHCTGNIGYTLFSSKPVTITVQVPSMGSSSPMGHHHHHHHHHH
Chain of FcγRIIaR soluble extracellular domain with C-terminal 10xHis tag (P12318 other isoform, or with tags, fused parts or gaps): as above
Chain of FcγRIIb soluble extracellular domain with C-terminal 10xHis tag (P31994 other isoform, or with tags, fused parts or gaps limits assumed): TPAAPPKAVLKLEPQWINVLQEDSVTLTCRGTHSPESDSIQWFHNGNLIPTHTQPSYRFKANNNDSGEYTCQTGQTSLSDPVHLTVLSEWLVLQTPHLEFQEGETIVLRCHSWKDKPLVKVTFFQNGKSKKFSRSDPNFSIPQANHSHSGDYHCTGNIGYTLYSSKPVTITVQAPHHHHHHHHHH
Chain of Soluble FcγRIIb extracellular domain with C-terminal 10xHis tag (P31994 other isoform, or with tags, fused parts or gaps): as the sequence (P31994 other isoform, or with tags, fused parts or gaps limits assumed) above
Chain of FcγRI (P12314 16-292 limits assumed): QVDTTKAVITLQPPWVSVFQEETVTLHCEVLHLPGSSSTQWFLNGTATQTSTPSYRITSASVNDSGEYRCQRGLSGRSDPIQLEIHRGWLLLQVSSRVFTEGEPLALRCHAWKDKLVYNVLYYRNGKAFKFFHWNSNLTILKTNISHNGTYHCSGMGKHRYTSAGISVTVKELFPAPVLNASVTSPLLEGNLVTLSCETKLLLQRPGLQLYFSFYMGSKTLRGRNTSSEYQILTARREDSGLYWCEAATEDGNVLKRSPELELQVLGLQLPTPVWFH
Chain of FcγRIIIaV (P08637 17-208): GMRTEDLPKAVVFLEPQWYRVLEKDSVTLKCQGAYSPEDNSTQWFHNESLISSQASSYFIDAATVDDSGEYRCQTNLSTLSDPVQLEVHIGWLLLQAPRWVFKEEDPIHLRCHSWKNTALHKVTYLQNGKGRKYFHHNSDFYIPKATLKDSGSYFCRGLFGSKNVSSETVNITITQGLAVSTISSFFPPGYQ
Chain of Soluble FcγRIIb extracellular domain with C-terminal 10×His tag (P31994 other isoform, or with tags, fused parts or gaps): as the sequence (P31994 other isoform, or with tags, fused parts or gaps limits assumed) above

Substance: Variant 21653 (WT), anti-CD19 (4G7) full-size antibody
- Kd (FcγRIIb [6]): 2200 nM
- Kd (FcγRIIaR [7]): 720 nM

Substance: Variant 21653 (WT), anti-CD40 (Chi Lob 7/4) full-size antibody
- Kd (FcγRIIb [6]): 2100 nM
- Kd (FcγRIIaR [7]): 560 nM

Substance: Variant 21653 (WT), anti-HER2 (trastuzumab) full-size antibody
- Kd (FcγRIIb [6]): 2000 nM
- Kd (FcγRIIaR [7]): 630 nM

Substance: Variant 22127 (trastuzumab FSA; A: L234D_G236N_S267A; B: G236D_S239D_V266L_S267A_H268D) (antibody)
- C1q Binding (% WT) (C1q (human)): 215 % WT
- IIb-fold (fold change in affinity over wild-type) (FcγRIIb [8]): 49 fold
- IIaR-fold (fold change in affinity over wild-type) (FcγRIIaR [9]): 4 fold
- IIb Selectivity (IIb-Fold/IIaR-Fold) (FcγRIIb [10]): 12 fold

Substance: Variant 26593 (A_L234F_L235D_G236N_H268Q_A327G_A330K_P331S / B_G236D_S239D_V266L_S267A_H268D) (antibody)
- IIb-Fold wrt Control [11]: 0.7 fold
- IIaR-fold [12]: 2.5 fold
- IIb-Fold [13]: 65.2 fold
- IIb Selectivity [14]: 26.3 fold

Substance: Variant 26847 (A_L234F_G236N_H268Q_A327G_A330T_P331S / B_G236D_S239D_V266L_S267A_H268D) (antibody)
- IIb-Fold wrt Control [11]: 0.6 fold
- IIaR-fold [12]: 2.4 fold
- IIb-Fold [13]: 53.3 fold
- IIb Selectivity Improvement wrt Control [15]: 1.7 fold
- IIb Selectivity [14]: 22.6 fold

Substance: Variant 27294, Launching Module 2 (A_L234F_G236N_H268Q_A327G_A330K_P331S / B_G236D_S239D_V266L_S267A_H268D), one-armed trastuzumab antibody
- Kd [2]: 16 nM
- Kd [3]: 44 nM

Substance: Variant 31256 (trastuzumab FSA; A: L234F_G236N_H268Q_A327G_P329I_A330K_P331S; B: G236D_G237D_S239D_V266L_S267A_H268D) (antibody)
- C1q Binding (% WT) (C1q (human)): 3 % WT
- IIb-fold (fold change in affinity over wild-type) (FcγRIIb [8]): 121 fold
- IIaR-fold (fold change in affinity over wild-type) (FcγRIIaR [9]): 4 fold
- IIb Selectivity (IIb-Fold/IIaR-Fold) (FcγRIIb [10]): 34 fold

Substance: Variant 31521 (trastuzumab full-size antibody, knobs-into-holes heterodimeric IgG1 Fc, no CH2 mutations; parental scaffold)
- Kd (FcγRIIIaV): 1890 nM
- Kd (FcγRI): 0.098 nM
- Kd (FcγRIIb [17]): 7740 nM
- Kd (FcγRIIaR [18]): 2590 nM

Substance: v12 (IIb-specific comparator, symmetrical E233D_G237D_P238D_H268D_P271G_A330R), anti-CD40 (Chi Lob 7/4) full-size antibody
- Kd (FcγRIIaR [7]): 390 nM

Substance: v26130 (A_N236A_strat1), one-armed trastuzumab antibody
- Kd [19]: 4 nM
- Kd [20]: 12 nM

Substance: v26131 (A_N236V_strat1), one-armed trastuzumab antibody
- Kd [19]: 3 nM
- Kd [20]: 8 nM

Substance: variant 16533, one-armed trastuzumab antibody (Scaffold 2), S267I in both chains
- Selectivity IIb/IIaR (FcγRIIb [21]): 2.8
- Ka,mut/Ka,WT (FcγRIIb [22]): 2.69
- Ka,mut/Ka,WT (FcγRIIaR [23]): 0.98
- IIb/IIaR Selectivity (FcγRIIb [24]): 2.75
- IIb-Fold (fold affinity over wild-type) (FcγRIIb [25]): 2.69 fold
- IIaR-Fold (fold affinity over wild-type) (FcγRIIaR [26]): 0.98 fold

Substance: variant 16578, one-armed trastuzumab antibody (Scaffold 2), A327G_A330S_P331S_L234F_H268Q_K274Q in both chains
- Selectivity IIb/IIaR (FcγRIIb [21]): 4.4
- Ka,mut/Ka,WT (FcγRIIb [22]): 2.03
- Ka,mut/Ka,WT (FcγRIIaR [23]): 0.47
- IIb/IIaR Selectivity (FcγRIIb [24]): 4.35
- IIb-Fold (fold affinity over wild-type) (FcγRIIb [25]): 2.03 fold
- IIaR-Fold (fold affinity over wild-type) (FcγRIIaR [26]): 0.47 fold

Substance: variant 16585, one-armed trastuzumab antibody (Scaffold 2), L234D in both chains
- Selectivity IIb/IIaR (FcγRIIb [21]): 2.7
- Ka,mut/Ka,WT (FcγRIIb [22]): 0.47
- Ka,mut/Ka,WT (FcγRIIaR [23]): 0.17
- IIb/IIaR Selectivity (FcγRIIb [24]): 2.7
- IIb-Fold (fold affinity over wild-type) (FcγRIIb [25]): 0.47 fold
- IIaR-Fold (fold affinity over wild-type) (FcγRIIaR [26]): 0.17 fold

Other lines, results leading:

- IIb Selectivity [1]: 1
- Kd [2]: 1400 nM
- Kd [3]: 310 nM
- IIb-Fold [4]: 1 fold
- IIaR-fold [5]: 1 fold
Substance: Variant 16463, wild-type one-armed trastuzumab antibody (Scaffold 2)

- C1q Binding (% WT) (C1q (human)): 3 % WT
- IIb-fold (fold change in affinity over wild-type) (FcγRIIb [8]): 33 fold
- IIaR-fold (fold change in affinity over wild-type) (FcγRIIaR [9]): 4 fold
- IIb Selectivity (IIb-Fold/IIaR-Fold) (FcγRIIb [10]): 9 fold
Substance: Variant 22128 (trastuzumab FSA; A: L234F_G236N_H268Q_K274Q_A327G_A330K_P331S; B: L234F_G236D_S239D_V266L_S267A_H268D_K274Q_A327G_A330S_P331S) (antibody)

- IIb-Fold wrt Control [11]: 0.7 fold
- IIaR-fold [12]: 2.6 fold
- IIb-Fold [13]: 62.1 fold
- IIb Selectivity Improvement wrt Control [15]: 1.8 fold
- IIb Selectivity [14]: 23.6 fold
Substance: Variant 26663 (A_L234F_G236N_S267A_H268Q_A327G_A330K_P331S / B_G236D_S239D_V266L_S267A_H268D) (antibody)

- IIb-Fold wrt Control [11]: 3.2 fold
- IIaR-fold [12]: 14.2 fold
- IIb-Fold [13]: 296 fold
- IIb Selectivity Improvement wrt Control [15]: 1.6 fold
- IIb Selectivity [14]: 20.9 fold
Substance: Variant 26931 (A_L234F_G236N_H268Q_A327G_A330K_P331S / B_G236D_G237L_S239D_V266L_S267A_H268D) (antibody)

- IIb-Fold wrt Control [11]: 5.8 fold
- IIaR-fold [12]: 27.5 fold
- IIb-Fold [13]: 542 fold
- IIb Selectivity Improvement wrt Control [15]: 1.5 fold
- IIb Selectivity [14]: 19.7 fold
Substance: Variant 26939 (A_L234F_G236N_H268Q_A327G_A330K_P331S / B_G236D_G237N_S239D_V266L_S267A_H268D) (antibody)

- IIb-Fold wrt Control [11]: 3.3 fold
- IIaR-fold [12]: 13.1 fold
- IIb-Fold [13]: 304 fold
- IIb Selectivity Improvement wrt Control [15]: 1.7 fold
- IIb Selectivity [14]: 23.3 fold
Substance: Variant 26940 (A_L234F_G236N_H268Q_A327G_A330K_P331S / B_G236D_G237D_S239D_V266L_S267A_H268D) (antibody)

- Kd [16]: 150 nM
Substance: Variant 27362, strat3_control (A_G236N_G237A / B_G236D_G237F_S239D_S267V_H268D), one-armed trastuzumab antibody

- C1q Binding (% WT) (C1q (human)): 2 % WT
- IIb-fold (fold change in affinity over wild-type) (FcγRIIb [8]): 187 fold
- IIaR-fold (fold change in affinity over wild-type) (FcγRIIaR [9]): 7 fold
- IIb Selectivity (IIb-Fold/IIaR-Fold) (FcγRIIb [10]): 26 fold
Substance: Variant 31190 (trastuzumab FSA; A: L234F_L235D_G236N_H268Q_A327G_A330K_P331S; B: G236D_G237L_S239D_V266L_S267A_H268D) (antibody)

- Kd [19]: 6.5 nM
- Kd [20]: 18 nM
Substance: v26128 (A_L235P_strat1), one-armed trastuzumab antibody

- Kd [19]: 4.6 nM
- Kd [20]: 8.9 nM
Substance: v26129 (A_N236G_strat1), one-armed trastuzumab antibody

- Kd [19]: 2.7 nM
- Kd [20]: 7.3 nM
Substance: v26132 (A_N236L_strat1), one-armed trastuzumab antibody

- Selectivity IIb/IIaR (FcγRIIb [21]): 2.5
- Ka,mut/Ka,WT (FcγRIIb [22]): 0.52
- Ka,mut/Ka,WT (FcγRIIaR [23]): 0.21
- IIb/IIaR Selectivity (FcγRIIb [24]): 2.48
- IIb-Fold (fold affinity over wild-type) (FcγRIIb [25]): 0.52 fold
- IIaR-Fold (fold affinity over wild-type) (FcγRIIaR [26]): 0.21 fold
Substance: variant 16572, one-armed trastuzumab antibody (Scaffold 2), L234F in both chains
